Reference: paper PMC5470993, “Discovery and characterization of small molecule Rac1 inhibitors” (Oncotarget, 2017)

Target: Recombinant Rac1 (1-192aa), His-tagged fusion protein (UniProt P63000 1-192)
Experiment: pull-down; cell-free: 5 μg purified His-Rac1 in 20 μl GTP binding buffer (20 mM Tris-HCl pH 7.6, 100 mM NaCl, 2 mM MgCl2, 1 mM DTT) with 1% BSA, GTP-γS (0.01-10 μM, or 200 nM after 1 h with compound #1 or #6) for 10 min at room temperature, then 1 h with GST-PAK1 on agarose beads; Rac1 immunoblot
Settings: both partners purified

binding result: binds
B1: GST-PAK1-PBD (70-117aa) (domain or fragment)
chain: KERPEISLPSDFEHTIHVGFDAVTGEFTGMPEQWARLLQTSNITKSEQ
notes: Held on glutathione/agarose beads; The methods also name a Rac1/Cdc42 assay kit (Upstate Biotechnology); also called GST-PAK1 (RBD); source: E. coli DH5α, purified on glutathione resin; plasmid from Addgene
